The binders below were run against biotin-Aβ42-oligomer (UniProt P05067) (assay: binding of biotinylated ligand to transfected cells).

Binder | Kd [nM]
cellular Prion Protein (PrP^C), full-length mouse PrP expressed on COS-7 cells (receptor) not shown | 92
Amyloid precursor-like protein 1 (APLP1) (natural protein) SLAGGSPGAAEAPGSAQVAGLCGRLTLHRDLRTGRWEPDPQRSRRCLRDPQRVLEYCRQMYPELQIARVEQATQAIPMERWCGGSRSGSCAHPHHQVVPFRCLPGEFVSEALLVPEGCRFLHQERMDQCESSTRRHQEAQEACSSQGLILHGSGMLLPCGSDRFRGVEYVCCPPPGTPDPSGTAVGDPSTRSWPPGSRVEGAEDEEEEESFPQPVDDYFVEPPQAEEEEETVPPPSSHTLAVVGKVTPTPRPTDGVDIYFGMPGEISEHEGFLRAKMDLEERRMRQINEVMREWAMADNQSKNLPKADRQALNEHFQSILQTLEEQVSGERQRLVETHATRVIALINDQRRAALEGFLAALQADPPQAERVLLALRRYLRAEQKEQRHTLRHYQHVAAVDPEKAQQMRFQVHTHLQVIEERVNQSLGLLDQNPHLAQELRPQIQELLHSEHLGPSELEAPAPGGSSEDKGGLQPPDSKDDTPMTLPKGSTEQDAASPEKEKMNPLEQYERKVNASVPRGFPFHSSEIQRDELAPAGTGVSREAVSGLLIMGAGGGSLIVLSMLLLRRKKPYGAISHGVVEVDPMLTLEEQQLRELQRHGYENPTYRFLEERP | 660
Transmembrane protein 30B (TMEM30B) (natural protein) MTWSATARGAHQPDNTAFTQQRLPAWQPLLSASIALPLFFCAGLAFIGLGLGLYYSSNGIKELEYDYTGDPGTGNCSVCAAAGQGRALPPPCSCAWYFSLPELFQGPVYLYYELTNFYQNNRRYGVSRDDAQLSGLPSALRHPVNECAPYQRSAAGLPIAPCGAIANSLFNDSFSLWHQRQPGGPYVEVPLDRSGIAWWTDYHVKFRNPPLVNGSLALAFQGTAPPPNWRRPVYELSPDPNNTGFINQDFVVWMRTAALPTFRKLYARIRQGNYSAGLPRGAYRVNITYNYPVRAFGGHKLLIFSSISWMGGKNPFLGIAYLVVGSLCILTGFVMLVVYIRYQDQDDDDEE | 720

From PMC2748841 (Nature, 2009)
